Results from patent CN118076384A.

Biological target: PDL1 on MDA MB-231 human breast cancer cells (human) (UniProt Q9NZQ7)
Assay: flow cytometry on MDA MB-231 cells, anti-human IgG Fc secondary antibody

Sequence of UniProt Q9NZQ7 (Q9NZQ7 19-290): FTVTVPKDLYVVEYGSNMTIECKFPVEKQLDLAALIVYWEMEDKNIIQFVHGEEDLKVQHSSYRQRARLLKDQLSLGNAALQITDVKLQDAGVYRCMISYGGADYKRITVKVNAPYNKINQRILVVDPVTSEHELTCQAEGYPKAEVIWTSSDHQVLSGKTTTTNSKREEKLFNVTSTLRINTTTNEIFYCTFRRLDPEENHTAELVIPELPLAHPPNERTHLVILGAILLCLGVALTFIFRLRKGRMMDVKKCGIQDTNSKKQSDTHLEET

Kd: 167 pM
Substance: 德瓦鲁单抗(durvalumab) (antibody)
